Publication PMC9021268

Assays:
[1] = target: Dynamic microtubules, coverslip-anchored (grown from GMPCPP-stabilized seeds with unpolymerized tubulin) (bovine) (UniProt Q6B856); assay: optical trap force clamp (detachment of kinetochore-decorated beads from microtubule tips); low density of kinetochores on anti-His beads (Dsn1:bead ratio 200); coverslip-anchored dynamic microtubules; 5 pN; 3 nM Dam1c and ATP in the buffer; 0.5 μM active AurB* flowed in
[2] = target: Dynamic microtubules, coverslip-anchored (grown from GMPCPP-stabilized seeds with unpolymerized tubulin) (bovine) (UniProt Q6B856); assay: optical trap force clamp (detachment of kinetochore-decorated beads from microtubule tips); low density of kinetochores on anti-His beads (Dsn1:bead ratio 200); coverslip-anchored dynamic microtubules; 1.5 pN; 3 nM Dam1c and ATP in the buffer; 0.5 μM active AurB* flowed in
[3] = target: Dynamic microtubules, coverslip-anchored (grown from GMPCPP-stabilized seeds with unpolymerized tubulin) (bovine) (UniProt Q6B856); assay: optical trap force clamp (detachment of kinetochore-decorated beads from microtubule tips); high density of kinetochores on anti-His beads (Dsn1:bead ratio 3,300); coverslip-anchored dynamic microtubules; ~1 pN; 3 nM Dam1c and ATP in the buffer; 5 μM AurB*-KD flowed in
[4] = target: Dynamic microtubules, coverslip-anchored (grown from GMPCPP-stabilized seeds with unpolymerized tubulin) (bovine) (UniProt Q6B856); assay: optical trap force clamp (detachment of kinetochore-decorated beads from microtubule tips); low density of kinetochores on anti-His beads (Dsn1:bead ratio 200); coverslip-anchored dynamic microtubules; 5 pN; 3 nM Dam1c and ATP in the buffer; 0.5 μM AurB*-KD flowed in
[5] = target: Dynamic microtubules, coverslip-anchored (grown from GMPCPP-stabilized seeds with unpolymerized tubulin) (bovine) (UniProt Q6B856); assay: optical trap force clamp (detachment of kinetochore-decorated beads from microtubule tips); high density of kinetochores on anti-His beads (Dsn1:bead ratio 3,300); coverslip-anchored dynamic microtubules; ~1 pN; 3 nM Dam1c and ATP in the buffer; 5 μM active AurB* flowed in
[6] = target: Dynamic microtubules, coverslip-anchored (grown from GMPCPP-stabilized seeds with unpolymerized tubulin) (bovine) (UniProt Q6B856); assay: optical trap force clamp (detachment of kinetochore-decorated beads from microtubule tips); high density of kinetochores on anti-His beads (Dsn1:bead ratio 3,300); coverslip-anchored dynamic microtubules; ~1 pN; 3 nM Dam1c and ATP in the buffer; 0.5 μM active AurB* flowed in
[7] = target: Dynamic microtubules, coverslip-anchored (grown from GMPCPP-stabilized seeds with unpolymerized tubulin) (bovine) (UniProt Q6B856); assay: optical trap force clamp (detachment of kinetochore-decorated beads from microtubule tips); low density of kinetochores on anti-His beads (Dsn1:bead ratio 200); coverslip-anchored dynamic microtubules; 1.5 pN; 3 nM Dam1c and ATP in the buffer; 0.5 μM AurB*-KD flowed in
[8] = target: tubulin (microtubules); assay: optical trap tip-attachment detachment rate
[9] = reference: 5 µM AurB*-KD flowed in

Sequence of UniProt Q6B856 (Q6B856 whole entry, looked up): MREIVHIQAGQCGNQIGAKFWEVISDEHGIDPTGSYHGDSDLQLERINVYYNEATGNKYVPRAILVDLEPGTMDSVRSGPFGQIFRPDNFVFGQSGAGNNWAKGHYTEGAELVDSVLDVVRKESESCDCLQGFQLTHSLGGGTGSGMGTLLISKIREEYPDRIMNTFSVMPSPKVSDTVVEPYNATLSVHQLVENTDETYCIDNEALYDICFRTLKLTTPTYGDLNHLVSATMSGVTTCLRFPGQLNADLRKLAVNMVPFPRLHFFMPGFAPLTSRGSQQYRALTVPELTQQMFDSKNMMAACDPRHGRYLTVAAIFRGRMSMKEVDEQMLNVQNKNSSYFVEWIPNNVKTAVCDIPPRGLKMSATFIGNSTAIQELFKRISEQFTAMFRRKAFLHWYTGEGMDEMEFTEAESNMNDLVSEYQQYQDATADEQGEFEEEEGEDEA

detachment rate [1] | detachment rate [2] | detachment rate [3] | detachment rate [4] | detachment rate [5] | detachment rate [6] | detachment rate [7] | other: detachment rate ([8]; reference: 0.5 µM AurB*-KD flowed in) | other: detachment rate [8, 9] | Substance
7 h⁻¹ | 28.9 h⁻¹ | 2.3 h⁻¹ | 7 h⁻¹ | 7.2 h⁻¹ | 4.6 h⁻¹ | 10.4 h⁻¹ |  |  | Mps1-1 kinetochores (native kinetochores purified from budding yeast strain SBY8726) (from UniProt P40568 1-576; P40460 1-691; P53148 1-917) (complex)
 |  |  |  |  |  |  | weaker; reference 10.4 ± 3.3 | weaker; reference 2.3 ± 0.9 | Ndc80 (from UniProt P40460) 0.5 µM AurB* flowed in
 |  |  |  |  |  |  |  | weaker; reference 2.3 ± 0.9 | Ndc80 (from UniProt P40460) 5 µM AurB* flowed in
